For one experiment, the target named is T1, Myc-tagged RLI1 (yeast, UniProt Q03195 1-608).
T1 construct: chromosomal Myc-tagged allele; also called ABCE1/RLI1; source: chromosomal Myc-tagged allele, yeast strain YDH353, in whole cell extract
The experiment in a line: co-IP; WCE of yeast YDH353 (chromosomal Myc-tagged RLI1), 500 µg total protein, 1 µl mouse anti-Myc-Tag IgG, with or without antibody; lysis in buffer A (30 mM HEPES pH 8.8, 20 mM KAc, 3 mM magnesium acetate, 1 mM DTT, 1% Nonidet P-40); Western analysis. The conditions noted are these: partners not purified.

For the next experiment, the target named is T2, TAP-tagged HCR1 (yeast, UniProt Q05775 1-265).
T2 construct: eIF3j/HCR1, yeast; chromosomal TAP-tagged allele; also called eIF3j/HCR1; source: chromosomal TAP-tagged allele, yeast strain H553, cells treated with 1% HCHO, in whole cell extract
Briefly: pull-down; TAP-tagged chromosomal alleles; cells treated with 1% HCHO before harvest; WCE (1 mg protein) in buffer B (50 mM Tris-HCl pH 7.6, 150 mM NaCl, 0.05% Tween 20) with or without 0.1 mg/ml RNase A; IgG Sepharose 6 Fast Flow beads, 2 h at 4°C; eluted by boiling in SDS buffer or by TEV protease; untagged wt strain as control; Western analysis. The conditions noted are these: partners not purified.

T2 sequence (Q05775 whole entry): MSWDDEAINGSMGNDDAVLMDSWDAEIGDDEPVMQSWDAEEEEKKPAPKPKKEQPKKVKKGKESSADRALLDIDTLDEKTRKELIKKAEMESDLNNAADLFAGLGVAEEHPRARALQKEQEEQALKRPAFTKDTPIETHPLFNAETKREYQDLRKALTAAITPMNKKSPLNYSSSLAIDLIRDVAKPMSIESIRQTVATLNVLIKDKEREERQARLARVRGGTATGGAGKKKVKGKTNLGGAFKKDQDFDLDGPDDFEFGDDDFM

B1: eukaryotic release factor 3 (eRF3) (natural protein, yeast (endogenous in yeast cells), UniProt P05453 1-685, looked up)
chain: MSDSNQGNNQQNYQQYSQNGNQQQGNNRYQGYQAYNAQAQPAGGYYQNYQGYSGYQQGGYQQYNPDAGYQQQYNPQGGYQQYNPQGGYQQQFNPQGGRGNYKNFNYNNNLQGYQAGFQPQSQGMSLNDFQKQQKQAAPKPKKTLKLVSSSGIKLANATKKVGTKPAESDKKEEEKSAETKEPTKEPTKVEEPVKKEEKPVQTEEKTEEKSELPKVEDLKISESTHNTNNANVTSADALIKEQEEEVDDEVVNDMFGGKDHVSLIFMGHVDAGKSTMGGNLLYLTGSVDKRTIEKYEREAKDAGRQGWYLSWVMDTNKEERNDGKTIEVGKAYFETEKRRYTILDAPGHKMYVSEMIGGASQADVGVLVISARKGEYETGFERGGQTREHALLAKTQGVNKMVVVVNKMDDPTVNWSKERYDQCVSNVSNFLRAIGYNIKTDVVFMPVSGYSGANLKDHVDPKECPWYTGPTLLEYLDTMNHVDRHINAPFMLPIAAKMKDLGTIVEGKIESGHIKKGQSTLLMPNKTAVEIQNIYNETENEVDMAMCGEQVKLRIKGVEEEDISPGFVLTSPKNPIKSVTKFVAQIAIVELKSIIAAGFSCVMHVHTAIEEVHIVKLLHKLEKGTNRKSKKPPAFAKKGMKVIAVLETEAPVCVETYQDYPQLGRFTLRDQGTTIAIGKIVKIAE
notes: eRF3 (SUP35), yeast; also called SUP35; source: endogenous, yeast whole cell extract
Consider B1, for which the “percent of input co-precipitated” value with Myc-tagged RLI1 was ~13 % of the input. Moreover, the “percent of input co-purified” value in the experiment with TAP-tagged HCR1 was 9 ± 0.2%.

B2: ABCE1/RLI1 (natural protein, yeast (endogenous in yeast cells), UniProt Q03195 1-608, looked up)
chain: MSDKNSRIAIVSADKCKPKKCRQECKRSCPVVKTGKLCIEVTPTSKIAFISEILCIGCGICVKKCPFDAIQIINLPTNLEAHVTHRYSANSFKLHRLPTPRPGQVLGLVGTNGIGKSTALKILAGKQKPNLGRFDDPPEWQEIIKYFRGSELQNYFTKMLEDDIKAIIKPQYVDNIPRAIKGPVQKVGELLKLRMEKSPEDVKRYIKILQLENVLKRDIEKLSGGELQRFAIGMSCVQEADVYMFDEPSSYLDVKQRLNAAQIIRSLLAPTKYVICVEHDLSVLDYLSDFVCIIYGVPSVYGVVTLPASVREGINIFLDGHIPAENLRFRTEALQFRIADATEDLQNDSASRAFSYPSLKKTQGDFVLNVEEGEFSDSEILVMMGENGTGKTTLIKLLAGALKPDEGQDIPKLNVSMKPQKIAPKFPGTVRQLFFKKIRGQFLNPQFQTDVVKPLRIDDIIDQEVQHLSGGELQRVAIVLALGIPADIYLIDEPSAYLDSEQRIICSKVIRRFILHNKKTAFIVEHDFIMATYLADKVIVFEGIPSKNAHARAPESLLTGCNRFLKNLNVTFRRDPNSFRPRINKLDSQMDKEQKSSGNYFFLDNTGI
notes: source: endogenous, yeast whole cell extract
Consider B2, for which the “percent of input co-purified” value with TAP-tagged HCR1 is ~58%.

B3: eukaryotic release factor 1 (eRF1) (natural protein, yeast (endogenous in yeast cells), UniProt P12385 1-437, looked up)
chain: MDNEVEKNIEIWKVKKLVQSLEKARGNGTSMISLVIPPKGQIPLYQKMLTDEYGTASNIKSRVNRLSVLSAITSTQQKLKLYNTLPKNGLVLYCGDIITEDGKEKKVTFDIEPYKPINTSLYLCDNKFHTEVLSELLQADDKFGFIVMDGQGTLFGSVSGNTRTVLHKFTVDLPKKHGRGGQSALRFARLREEKRHNYVRKVAEVAVQNFITNDKVNVKGLILAGSADFKTDLAKSELFDPRLACKVISIVDVSYGGENGFNQAIELSAEALANVKYVQEKKLLEAYFDEISQDTGKFCYGIDDTLKALDLGAVEKLIVFENLETIRYTFKDAEDNEVIKFAEPEAKDKSFAIDKATGQEMDVVSEEPLIEWLAANYKNFGATLEFITDKSSEGAQFVTGFGGIGAMLRYKVNFEQLVDESEDEYYDEDEGSDYDFI
notes: eRF1 (SUP45), yeast; also called SUP45; source: endogenous, yeast whole cell extract
In the case of B3, the “percent of input co-precipitated” value with Myc-tagged RLI1 is ~22 % of the input. Moreover, the “percent of input co-purified” value with TAP-tagged HCR1 was ~2%.

The values are drawn from article PMC3836723, “Translation Initiation Factors eIF3 and HCR1 Control Translation Termination and Stop Codon Read-Through in Yeast Cells” (PLoS Genetics, 2013).
